Assay [1] has as its target angiotensin I converting enzyme (ACE). Put plainly: cell-based or functional assay.
Assay [2] shares this target. Put plainly: cell-based or functional assay. The source holds these as a separate data set.

We go through three molecules from US20090143311A1 (published 2009).

B1: tripeptide Isoleucine-Threonine-Proline (Ile-Thr-Pro) (peptide)
peptide: ITP
Take B1: in assay [1], the “IC50 value in µM, Modified Matsui assay (ACE inhibition, cleavage of Hip-His-Leu)” value was found to be 10 µM and the “IC50 value in µM, at-line ACE assay (ACE inhibition, cleavage of hippuryl-His-Leu)” value was found to be 50 µM.

B2: tripeptide Methionine-Alanine-Proline (Met-Ala-Pro) (peptide)
peptide: MAP
For the molecule B2, in assay [2], the “IC50 value in the Modified Matsui test (ACE inhibition)” value is 0.5 µM. In assay [1], the “IC50 value in µM, Modified Matsui assay (ACE inhibition, cleavage of Hip-His-Leu)” value turned out to be 0.4 µM and the “IC50 value in µM, at-line ACE assay (ACE inhibition, cleavage of hippuryl-His-Leu)” value is 3.8 µM.

B3: tripeptide IPP (peptide)
peptide: IPP
Take B3: in assay [1], the “IC50 value in µM, Modified Matsui assay (ACE inhibition, cleavage of Hip-His-Leu)” value stood at 2 µM and the “IC50 value in µM, at-line ACE assay (ACE inhibition, cleavage of hippuryl-His-Leu)” value is 7.1 µM.
